Results published in patent publication CN106957364A (UNIV SHANGHAI JIAOTONG, dated 2017).

Molecular target: T1, hFcRn&b2M蛋白 (human, UniProt P55899 24-297; P61769 21-119, limits assumed)
T1 construct: also called hFcRn&β2M; hFcRn蛋白
Experiment: affinity measurement at pH 6.0, hFcRn&b2M as ligand, scFv as sample (method not named)

T1 sequence (P55899 24-297 limits assumed, chain 1 of 2): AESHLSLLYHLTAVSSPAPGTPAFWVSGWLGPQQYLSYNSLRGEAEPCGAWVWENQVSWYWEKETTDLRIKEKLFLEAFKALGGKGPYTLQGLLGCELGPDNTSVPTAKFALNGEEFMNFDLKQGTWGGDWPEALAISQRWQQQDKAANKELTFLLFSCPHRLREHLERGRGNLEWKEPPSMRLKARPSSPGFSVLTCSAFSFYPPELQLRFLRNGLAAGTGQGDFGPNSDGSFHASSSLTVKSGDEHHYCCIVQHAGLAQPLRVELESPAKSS
T1 sequence (P61769 21-119 limits assumed, chain 2 of 2): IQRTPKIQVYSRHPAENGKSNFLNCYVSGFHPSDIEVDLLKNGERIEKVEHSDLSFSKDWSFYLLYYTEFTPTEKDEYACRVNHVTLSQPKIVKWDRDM

B1: 单链抗体FnAb12 (scFv)
scFv: DIQLTQSPSSLSASVGDRVTLTCQATQDIDNNLNWYQQKPGKAPKLLIYDASNLETGVPSRFSGSGSGTDFTFTISDLQPEDVATYYCQQYYNLPLTFGGGTKVDIKRSRGGGGSGGGGSGGGGSLEMAEVQLVQSGAEVKKPGASVKVSCKASGYTFTSYDINWVRQATGQGLEWMGWMNPNSGNTGYAQKFQGRVTMTRNTSISTAYMELSSLRSEDTAVYYCARGVDLGDGWGQGTLVTVSS
notes: Single-chain antibody from a phage library; also called FnAb12抗体; 单克隆抗体FnAb12
- Kd: 15 nM
